Tests used:
[1] = system: tumorlets (neoplastic Schwann cell proliferation areas); test: Quantification of tumorlets in Nf2flox;Postn-Cre mice; format: in vivo; conditions: 20 μg rhNRG1 per kg bodyweight ip for three months, vs control animals
Excerpt: (§1) PFA-fixed tissue blocks derived from rhNRG1 and control treated animals containing lower spinal cord, lumbar dorsal root ganglions (DRG) as well as distal nerve proportions were cut in 4 planes per animal. Photographs were subsequently scanned and analyzed using the NanoZoomer Digital Pathology Software. The total area occupied by peripheral nerve tissue and dorsal root ganglion (DRG) tissue in mm^2 was quantified separately. Likewise, neoplastic tissue regions were identified and quantified separately for peripheral nerves and DRG areas. All quantitative analyses of tumorlets in Nf2flox;Postn-Cre mice were performed in blinded manner.
The in vivo results on the efficacy of rhNRG1 on schwannoma growth was tested as described in Example 1 however in a another animal model of schwannoma disease, the well-established Nf2flox;Postn-Cre mouse line, wherein a conditional Nf2 gene deletion is facilitated by the Periostin-Cre driver line (Nf2flox;Postn-Cre).
In this model all animals spontaneously develop spinal, peripheral and cranial nerve schwannomas over time (Gehlhausen et al., 2015). 4-month-old mutant Nf2flox;Postn-Cre animals as well as their corresponding wildtype littermates were either treated with saline control injections or intraperitoneal rhNRG1 administration for three months (FIG. 8A). […]

[2] = system: ErbB2 and myelin protein zero (MPZ) expression; test: Immunoblot of nerve tissue from Nf1flox;Postn-Cre mice; format: in vivo; conditions: rhNRG1 over 3 months
Excerpt: A, Study protocol used to assess the efficacy of systemic rhNRG1 treatment on schwannoma growth in Nf1flox;Postn-Cre animals. B, Representative longitudinal nerve section from six-month-old mutant Nf1flox;Postn-Cre mice indicating a circumscribed area of neurofibroma growth. Scale bars represent 50 μm. C, Fraction of tumor tissue within total tissue was quantified as area covered by tumor in relation to the total nerve area in investigated nerve sections. Nf1flox;Postn-Cre mutant mice receiving intraperitoneal saline injections (KO vehicle ip) were compared to mutants on rhNRG1 injections (KO rhNRG1 ip; n=6 animals per genotype; mean±SEM). D, Immunoblot of pooled tissue from at least three different animals prepared from sciatic nerves, brachial nerves, trigeminal nerves and dorsal root ganglions (DRG). Nf1flox;Postn-Cre mutant animals received either vehicle control injections (KO vehicle ip) or rhNRG1 treatment (KO rhNRG1 ip) over 3 months. Immunostaining for ErbB2, Akt, phospho-Akt (pAkt), c-Jun, Erk1/2, phospho-Erk1/2 (pErk1/2), myelin protein zero (MPZ), myelin basic protein (MBP) and GAPDH as loading control (n=3).
Immunoblotting was performed as described in (Morrison et al., 2001). […] Western blot results were quantified using Gel analysis software by ImageJ. […]

[3] = system: pre-existing schwannomas; test: rhNRG1 treatment of pre-existing schwannomas: maximum sciatic nerve diameter; format: in vivo, Nf2flox;P0-Cre;Nefh-Cre mutant mice; conditions: 3 months untreated, then 3 months systemic rhNRG1, vs vehicle
Excerpt: A, Schematic representation of the protocol used to assess the efficacy of rhNRG1 treatment on pre-existing schwannomas. B, Quantification of maximum sciatic nerve diameters 3 and 6 months after nerve crush injury. Nf2flox;P0-Cre;Nefh-Cre mutant mice received either saline injections (vehicle) or intraperitoneal administration of rhNRH1 (** P<0.01 for differences between vehicle and rhNRG1-treated animals; n=6 animals per genotype; mean±SEM).
Three months after crush injury the right sciatic nerve of all animals was exposed surgically in order to assess sciatic nerve diameter as indicator for tumour size. Documentation was performed by video-assisted microscopy for each animal. Selected frames from the video files (using VirtualDub 1.6.19 software) were used to determine sciatic nerve diameter using ImageJ.
Two cohorts of animals underwent crush injury-induced schwannoma induction at the right sciatic nerve as described above (FIG. 5A). […] Then knockout animals (Nf2flox;P0-Cre;Nefh-Cre mutant animals) received either systemic rhNRG1 treatment or vehicle control applications for three months (FIG. 5A). […] (FIG. 5B)

[4] = Serum levels of rhNRG1 after intraperitoneal injection (Nrg1 ELISA kit); format: in vivo, mice; conditions: single intraperitoneal injection, 10 μg per kg body weight, pooled blood
Experimental: To measure peripheral exposure of rhNRG1 in mice, up to 50 μl blood was sampled from mice for four consecutive days via bilateral retro-orbital plexus and facial veins. For serum preparation, collected blood was allowed to clot at room temperature for 1 hour before spinning for 20 minutes at 2,000 g.
Blood serum levels of rhNRG1 before and after intraperitoneal injection were measured using a commercially available kit according to manufacturer's instructions (#ab100614; Abcam; USA).
Crush injury-induced schwannoma formation was provoked in 2-month-old mice. Subsequently, administration of rhNRG1 was performed both systemically (by intraperitoneal injection) and locally (by rhNRG1-containing absorbable collagen sponges (ACS)). Vehicle saline solution was given to control animals. In order to assess the bioavailability of intraperitoneally injected rhNRG1 (10 μg per kg body weight), rhNRG1 serum levels were evaluated. Strikingly, rhNRG1 levels reached a peak 2 days after injection (FIG. 1B). […] A significant decline in body weight at the chosen dosage was, however, not observed (FIG. 1C).

[5] = in vivo; cited from earlier work
[6] = system: neurofibromas; test: Quantification of tumors in Nf1flox;Postn-Cre mice; format: in vivo; conditions: intraperitoneal rhNRG1 for three months, vs saline
Excerpt: as §1
Another closely related but not similar entity of Schwann cell tumors are neurofibromas. As opposed to schwannomas, Schwann cells represent the primary neoplastic cell component of neurofibromas (Stemmer-Rachamimov et al., 2004; Rodriguez et al., 2012), but also incorporate a mixture of non-neoplastic components, including axons, perineurial cells, fibroblasts and inflammatory cells. In order to test a possible effect of rhNRG1 treatment on these tumors, which are a typical manifestation of the hereditary disease Neurofibromatosis type 1 (NF1), 4-month-old mutant Nf1flox;Postn-Cre animals as well as wildtype littermates were either treated with saline control injections or intraperitoneal rhNRG1 administration for three months (FIG. 9A). […]

B1: rhNRG1: EGF domain containing 7 kDa protein of recombinant human Neuregulin 1, purchased from Reprokine (#RKQ02297) (protein, listed as Homo sapiens)
chain: SHLVKCAEKEKTFCVNGGECFMVKDLSNPSRYLCKCPNEFTGDRCQNYVMASFYKHLGIEF
Question: Which “tumorlet fraction (area occupied by tumorlets relative to total nerve tissue area)” value [1] does the source give for B1 here?
Answer: Its value is “significant reduction”.

Question: What about the “ErbB2 expression (immunoblot)” value [2] of the same molecule?
Answer: Its value is “reduced”.

Question: What about the “myelin protein zero (MPZ) expression (immunoblot)” value [2] of the same molecule?
Answer: Its value is “increased”.

Question: What about the “tumor size (maximum sciatic nerve diameter)” value [3] of the same molecule?
Answer: Its value is “markedly smaller”.

Question: What about the “time of peak rhNRG1 serum level after injection” value [4] of the same molecule?
Answer: The value was 2 days.

Question: And the body weight [5]?
Answer: Its body weight is “decrease in body weight”.

Question: What about the “neurofibromas from distal parts of the nervous system (tumor fraction)” value [6] of the same molecule?
Answer: The value was “significant effect”.
